A short description of the data set: yeast display, Sf9 membrane polyspecificity reagent, FACS + sequencing; frameworks hold sequencing errors. An outline of the steps: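 Nanobodies came from a synthetic yeast display library in Saccharomyces cerevisiae BJ5465, induced with galactose for 36–48 hours and stained for 1 hour at 4 °C with 10% biotinylated, detergent-solubilized Sf9 membrane reagent. Cells were enriched on streptavidin microbeads and then FACS-sorted, with low and high (top ~1%) gates set on anti-HA fluorescence for expression and streptavidin fluorescence for reagent binding. Each polyreactivity label reflects the gate a clone came from. Genes were amplified by colony PCR, sequenced by MiSeq 2 × 250 and filtered by CDR length.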
“QVQLVESGGGLVQAGGSLRLSCAASGSTFYYYAMGWYRQAPGKERELVAVITRGGGTYYADSVKGRFTISRDNAKNTVYLQMNSLKPEDTAVYYCNARQRSSTRKGYNYWGQGTQVTVSS”: the “polyreactivity (PSR sort gate)” value was “high polyreactivity”.
The value for “QVQLVESGGGLVQAGGSLRLSCAASGSTFYYYSMGWYRQAPGKERELVASISDDGSTNYADSVKGRFTISRDNAKNTVYLQMNSLKPEDTAVYYCAAVWWHQFGSAWYQMGYWGQGTQVTVSS” was “low polyreactivity”; that for “QVQLVESGGGLVQAGGSLRLSCAASGSTFYYYTMGWYRQATGKERELVAAITYRGGSTYADSVKGRFTISRDNAKNTVYLQMNSLKPEDTAVYYCAAVRRHPTHYDYWGQGTQVTVSS” was “high polyreactivity”; that for “QVQLVESGGGLVQAGGSLRLSCAASGSTGVYAMGWYRQAPGKERELVADITSGGNTDYADSVKGRFTISRDNAKNTVYLQMTSLKPEDTAVYYCAADDYYVLDYFWFIEYGYWGQGTQVTVSS” was “high polyreactivity”.
As for “QVQLVESGGGLVQAGGSLRLSCAASGSTIADNAMGWYRQAPGKERELVAAITRSGVRTYYADSVKGRFTISRDNAKYTVYLQMNSLKPDDSAVYYCAKRTYPSRIYDYWGQGTQVTVSS”, the “polyreactivity (PSR sort gate)” value is on record as “low polyreactivity”.
The value for “QVQLVESGGGLVQAGGSLRLSCAASGSTIDRYAMGWYIQAPGKEREFVAAISFSSASTYYADSVKGRFTISRDNAKNTVYLQMNSLKPEDTAVYYCNADFFDSGGSIEYDSWGQGTQVTVSS” was “low polyreactivity”; that for “QVQLVESGGGLVQAGGSLRLSCAASGSTIDWYGMGWYRQAPGKERELVAAINFSDGSTYYADSVKGRFTISRDNAKNTVYLQMNSLKPEDTAVYYCAAYTPSYGGRDYWGQGTQVTVSS” was “low polyreactivity”.
As for “QVQLVESGGGLVQAGGSLRLSCAASGSTIDYYAMGWYRQAPGKERELVATISRGGSTNYADSVKGRFTISRDNAKNTVYLQMNSLKPEDTAVYYCAATYARYFYKYYYWGQGTQVTVSS”, the entry is “high polyreactivity”; as for “QVQLVESGGGLVQAGGSLRLSCAASGSTIEPNSMGWYRQAPGKEREFVAAITTRGGSTFYADSVKGRFTISRDNAKNTVYLQMNSLKPEDTAVYYCAADYYFVDYDYWGQGTQVTVSS”, “low polyreactivity”.
As for “QVQLVESGGGLVQAGGSLRLSCAASGSTIFYNAMGWYSKAPGKERELVAAITDSGGSTYYADSVKGRFTISRDNAKNTVYLQMNSLKPEDTAVYYCAKRNFDNPIFDYWGQGTQVTVSS”, the entry is “low polyreactivity”; as for “QVQLVESGGGLVQAGGSLRLSCAASGSTIGDNAMGWYSQAPGKERELVASISWSGASTYYADSVKGRFTISRDNAKNTVYLQMNSLKPEDTAVYYCAVYYSYYSHLYHLLFYYWGQGTQVTVSS”, “low polyreactivity”; as for “QVQLVESGGGLVQAGGSLRLSCAASGSTIIAYAMGWYRQAPGKERELVAAITTGDSTNYADSVKGRFTISRDNAKNTVYLQMNSLKPEDTAVYYCNADATDFHFLSEIGSSQEGDYWGQGTQVTVSS”, “low polyreactivity”.
As to “QVQLVESGGGLVQAGGSLRLSCAASGSTIIYNTMGWYRQAPGKERELVARITWSGGSTSYADSVKGRFTISRDNAKNTVYLQMNSLKPEDTAVYYCNRRVQARRYRYDYWGQGTQVTVSS”, the “polyreactivity (PSR sort gate)” value is reported as “high polyreactivity”.
As for “QVQLVESGGGLVQAGGSLRLSCAASGSTIKYYAMGWYRQAPGKDRELVAAINWSGDSTYYADSVKGRFTISRDNAKNTVYLQMHSLKPEETAVYYCAVRYQKRAYYGSNYWGQGTQVTVSS”, the entry is “high polyreactivity”.
In the case of “QVQLVESGGGLVQAGGSLRLSCAASGSTILSNAMGWYRQAPGKERELVARITSGGSTHYADSVKGRFTISRDNAKNTVYLQMNSLKPEDTAVYYCNADYWFVEYDYWGQGTQVTVSS”, the “polyreactivity (PSR sort gate)” value is reported as “low polyreactivity”.
Turning to “QVQLVESGGGLVQAGGSLRLSCAASGSTIPRNALGWYRQATGKERELVPAISSGGSTYYADSVKWRFTISRDNAKNTVYLQMNRLKPEDTAVYYCAARLYWPIIVVDLYGYDYWGQGTQVTVSS”, the “polyreactivity (PSR sort gate)” value is “low polyreactivity”.
For the sequence “QVQLVESGGGLVQAGGSLRLSCAASGSTIQSNGMVWYRQAPGKERELVAAITSTDASTSYADSVKGRFTISRDNAKNTVYLQMNSLKPEDTAVYYCAADFPVASGAELDYWGLGTQVTVSS”, the “polyreactivity (PSR sort gate)” value is “low polyreactivity”.
For “QVQLVESGGGLVQAGGSLRLSCAASGSTIRFNAMGWYRQAPRKERELVAAISWRGGTTYADSVKGRFTISRDNAKNTVFLQMTSLKPEDTAVYYCAAGLYAQGKRYGYWGHGTQVTVSS”, the “polyreactivity (PSR sort gate)” value is “high polyreactivity”.
As for “QVQLVESGGGLVQAGGSLRLSCAASGSTIRLNAMGWYRQAPGKERELVAAISWTGGSTYYADSVKGRFTISRDNAKNTVYLQMNSLKPEDTAVYYCAADWWQGTSHYWGGAYNYWGQGTQVTVSS”, the entry is “low polyreactivity”; as for “QVQLVESGGGLVQAGGSLRLSCAASGSTIRSYAMGWYRQAPGKERELVAVISSGDSTYYADSVKGRFTISRDNAKNTVYLQMNSLKPEDTAVYYCAADSYVLGRWYGYWGQGTQVTVSS”, “low polyreactivity”.
The value for “QVQLVESGGGLVQAGGSLRLSCAASGSTISGYAMGWYRQAPGKERELVATISRGGSTNYADSVKGRFTISRDNAKNTVYLQMNSLKPEDTAVYNCAAQTYVWWVKYHSWGQGTQVTVSS” was “low polyreactivity”; that for “QVQLVESGGGLVQAGGSLRLSCAASGSTISYYAMGWYRQAPGKERELVAAITRSGGSTYYADSVKGRFTISRDNAKNTFYLQMNSLKPEDTAVYYCAKGWRYFVGWGQRSRYYFWGQGTQVTVSS” was “high polyreactivity”; that for “QVQLVESGGGLVQAGGSLRLSCAASGSTITDYDMGWYRQAPGKERELVAAITSGGSTNYADSVKGRFTISRDNAKNTVYLQMNSLKPEDTAVYYCAAADADRKYDYWGQGTQVTVSS” was “low polyreactivity”.
The value for “QVQLVESGGGLVQAGGSLRLSCAASGSTITDYTMGWYRQAPGKERELVAVISQSGGSTYYADSVKGRFTISRDNAKNTVYLQMNSLKPEDTAVYYCAARTYWRGYRGQKYDYWGQGTQVTVSS” was “high polyreactivity”; that for “QVQLVESGGGLVQAGGSLRLSCAASGSTIVSYDMGWYRPAPGKDRELVAAITYDGDSTYYADSVKGRFTISRDNAKNTVYLQMNSLKPEDTAVYYCAAEPGDDLKFRGGFEYWGQGTQVTVSS” was “low polyreactivity”; that for “QVQLVESGGGLVQAGGSLRLSCAASGSTIYKYAMGWYRQAPGKERELVAAISGSGGRTYYADSVKGRFTISRDNAKNTVYLQMNSLKPEDTAVYYCAARPKGGPWEHDYWGQGTQVTVSS” was “high polyreactivity”.
For “QVQLVESGGGLVQAGGSLRLSCAASGSTIYPYAMGWYRQAPGKERELVASISGGGSTYYADSVKGRFTISRDNAKNTVYLQMNSLKPEDTAVYYCNAEFDLYWYRYYYWGQGTQVTVSS”, the “polyreactivity (PSR sort gate)” value is “high polyreactivity”.
For the sequence “QVQLVESGGGLVQAGGSLRLSCAASGSTIYSYAMGWYRQAPGKERELVAAISWSGARTYYADSVKGRFTISRDIAKNTVYLQMNSLKPEDTAVYYCAASGYYSSHMDYWGQGTQVTVSS”, the “polyreactivity (PSR sort gate)” value is listed as “high polyreactivity”.
The value for “QVQLVESGGGLVQAGGSLRLSCAASGSTIYTYALGWYRQAPGKERELVAAIRGRGGRTYYADSVKGRFTISRDNAKNTVYLQMNSLKPEDTAVYYCNADGYAYYRATTRFDYWGQGTQVTVSS” was “high polyreactivity”; that for “QVQLVESGGGLVQAGGSLRLSCAASGSTIYVKAMGWYRQAPGKEREFVAAITWNSGSTYYADSVKGRFTISRDNAKKTVYLQINSLKPEDTAVYYCAAVLSVLVYGYVYWGQGTQVTVSS” was “low polyreactivity”; that for “QVQLVESGGGLVQAGGSLRLSCAASGSTIYVYAMGWYRHPPGKERELVAAISTAGGRTSYADSVKGRFTISRDNAQNTVYLQMNSLKPEDTAVYYCAARSTLYRSIRYDYWGQGTQVTVSS” was “high polyreactivity”.
As for “QVQLVESGGGLVQAGGSLRLSCAASGSTLAGYAMGWYRQAPGKERELVATISWSDGSTSYADSVKGRFTFSRDNAKNTVYLQLNSLKPEDTAVSYCAADAITNYDGRKSRRSYSAYDYWGQGTQVTVSS”, the entry is “low polyreactivity”.
Take “QVQLVESGGGLVQAGGSLRLSCAASGSTLAQYAMGWYRQAPGKERELVAAISRRGASTYYADSVKGRFTISRDNAKNTGYLQMNSLKPEDTAVYYCNAVRGEKMGYWGQGTQVTVSS”: the “polyreactivity (PSR sort gate)” value was “high polyreactivity”.
As for “QVQLVESGGGLVQAGGSLRLSCAASGSTLASYAMGWYKQAPGKERELVAAISRGGGSTFYADSVKGRFTISRDNAKNTVYLQMNSLKPEDTAVYYCAAFGRYYYIYDYWGQGTQVTVSS”, the entry is “high polyreactivity”; as for “QVQLVESGGGLVQAGGSLRLSCAASGSTLAYNAMGWYRQAPGKERELVAAISSNGDSTYYADSVKGRFTISRDNAKNTVYLQMNSLKPEDTAVYYCAAGYYSRYYEAFEYYYWGQGTQVTVSS”, “high polyreactivity”; as for “QVQLVESGGGLVQAGGSLRLSCAASGSTLDGNAMGWYRQAPGKERELVAAISVSGGSTYYADSVKGRFTISRDNAKNTVYLQMNSLKPEDPAVYYCSTEWRPRYYGTEPFDSWGQGTQVTVSS”, “high polyreactivity”.
As for “QVQLVESGGGLVQAGGSLRLSCAASGSTLESYAMGWYRQAPGKERELVAAISKSGGRTYYADSVKGRFTISRDNAKNTLYLQMNSLKPEDTAVYYCAADSGTHLTYYWGQGTQVTVSS”, the entry is “high polyreactivity”.
The value for “QVQLVESGGGLVQAGGSLRLSCAASGSTLFWNAIGWYRQAPGKERELVAVISFSGVSTYYADSVKGRFTISRDNAKNTVYLQMNSLKPEDTAVYYCAAEVPHWPYYGRLHDRDYWGQGTQVTVSS” was “low polyreactivity”.
As to “QVQLVESGGGLVQAGGSLRLSCAASGSTLGAYAMGWSRQAPGKERELVAAISRSGGNTYYADSVKGRFTISRDNAKNTVYLQMNSLKPDDTAVYYCAAVRLYRYDYWGQGTQVTVSS”, the “polyreactivity (PSR sort gate)” value is listed as “low polyreactivity”.
The value for “QVQLVESGGGLVQAGGSLRLSCAASGSTLGVYAMGWYRQAPGKERELVAAISSGGSTTYADSVKGRFTISRDNAKNTDYLQMNSLKPEDTAVYYCAATNVRGVYYWGQGTQVTVSS” was “high polyreactivity”; that for “QVQLVESGGGLVQAGGSLRLSCAASGSTLGYYVMGWYRQAPGKERELVAAITGGGSTDYADSVKGRFTISRDNAKNTVYLQMNSLIPEDTAVYYCAAERTRTGQLFWWGPIYDYWGQGTQVTVSS” was “low polyreactivity”.

Values taken from the nanobody polyreactivity screen of Harvey et al. (2022).
